First the molecules themselves.
B1: CNNM4_(cNMP) (human CNNM4 cyclic nucleotide monophosphate binding-like domain, residues 545-730) [modified: SeMet labeled in the crystals; SeMet labeled in the crystals] [human] / itself (parent)
chain: KISPQLLLAAHRFLATEVSQFSPSLISEKILLRLLKYPDVIQELKFDEHNKYYARHYLYTRNKPADYFILILQGKVEVEAGKENMKFETGAFSYYGTMALTSVPSDRSPAHPTPLSRSASLSYPDRTDVSTAATLAGSSNQFGSSVLGQYISDFSVRALVDLQYIKITRQQYQNGLLASRMENSPQ
B2: CNNM4_(BAT-cNMP-Ctail) (complete intracellular region of human CNNM4, residues 356-775) [human] / itself (parent)
chain: KEELNMIQGALELRTKTVEDIMTQLQDCFMIRSDAILDFNTMSEIMESGYTRIPVFEDEQSNIVDILYVKDLAFVDPDDCTPLKTITRFYNHPVHFVFHDTKLDAMLEEFKKGKSHLAIVQKVNNEGEGDPFYEVLGLVTLEDVIEEIIKSEILDESDMYTDNRSRKRVSEKNKRDFSAFKDADNELKVKISPQLLLAAHRFLATEVSQFSPSLISEKILLRLLKYPDVIQELKFDEHNKYYARHYLYTRNKPADYFILILQGKVEVEAGKENMKFETGAFSYYGTMALTSVPSDRSPAHPTPLSRSASLSYPDRTDVSTAATLAGSSNQFGSSVLGQYISDFSVRALVDLQYIKITRQQYQNGLLASRMENSPQFPIDGCTTHMENLAEKSELPVVDETTTLLNERNSLLHKASHENAI

The variants in test [1] derive from B1. Nature of the test: SEC-MALS. Particulars: with itself, monomer Mw = 20936.78 Da. A general note: SEC sorts molecules by how far they enter the pores of the column.
The variants in test [2] derive from B2. Nature of the test: SEC-MALS. Conditions: with itself, monomer MW = 47,861.17 Da.

These results are taken from PMC6940986, “Structural Insights into the Intracellular Region of the Human Magnesium Transport Mediator CNNM4” (International Journal of Molecular Sciences, 2019).

For chain 1 F87A, the screen value with itself [1] (1 mg/mL (dotted lines)) was found to be 21700 Da; with itself [1] (10 mg/mL (solid lines)) it was 26400 Da.
chain 1 F276A: the screen value with itself [2] (1 mg/mL (dotted lines)) turned out to be 49200 Da; with itself [2] (10 mg/mL (solid lines)), 60900 Da.
